Assay results published in PMC3973330, “A highly divergent archaeo-eukaryotic primase from the Thermococcus nautilus plasmid, pTN2”.

Biological target: T1, PolpTN2delta311-923 (Thermococcus nautilus (plasmid pTN2), UniProt D6MY06 1-310)
T1 sequence: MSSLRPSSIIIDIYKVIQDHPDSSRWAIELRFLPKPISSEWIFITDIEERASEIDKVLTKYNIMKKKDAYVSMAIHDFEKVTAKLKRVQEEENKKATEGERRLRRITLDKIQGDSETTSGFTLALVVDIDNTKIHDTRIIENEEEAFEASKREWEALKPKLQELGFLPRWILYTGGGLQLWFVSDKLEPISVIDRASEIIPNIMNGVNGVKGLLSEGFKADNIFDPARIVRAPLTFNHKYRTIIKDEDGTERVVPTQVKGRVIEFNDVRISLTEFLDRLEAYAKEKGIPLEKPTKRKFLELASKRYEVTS
Test: EMSA; 10 mM Mg2+; EMSA: 50 mM Tris-HCl pH 8, 20 mM KCl, 10 mM MgCl2, 7.5 nM probe, 30 min at 65 C; 10% native PAGE in TBE
Settings: protein: recombinant; tags: His-tag (pET30, NdeI/XhoI); label: 32P; single strand

Binder | binding result
AGAGGGUUCAAAAAAUGGUUUCACCCCAAA (ssRNA) [30 RT] | binds
AGAGGGTTCAAAAAATGGTTTCACCCCAAA (ssDNA) [30 DNA] | binds
